The text below walks through data of patent US20200317753A1 (LIFEARC, published 2020).

The target of test [1] is T1, SP70 peptide epitope of the EV71 VP1 capsid protein (Enterovirus 71).
T1 construct: 15-amino acid peptide; residues 208-222 counted on VP1
T1 peptide: YPTFGEHKQEKDLEY
Nature of the test: isothermal titration calorimetry, observed KA. For orientation: Isothermal titration calorimetry measures the heat released or taken up as one component is titrated into another.
Text: (§1) KD can be calculated using Gibbs free energy, enthalpy and entropy: ΔG=ΔH−TΔS and ΔG=RT In KD.

In test [2] the target is T1, SP70 peptide epitope of the EV71 VP1 …. Nature of the test: isothermal titration calorimetry.
Test [3] shares this target. The test can be described thus: binding ELISA on SP70 peptide, antibody not incubated, OD 650 nm [top panel].
For test [4] the target is unchanged. The test can be described thus: isothermal titration calorimetry, observed KD.
Text: as §1
Test [5] shares this target. The test can be described thus: binding ELISA on SP70 peptide, OD 650 nm. A general note: ELISA stands for enzyme-linked immunosorbent assay.
Experimental: Serial dilutions of antibody variants (starting from ˜100 −g/ml) were added to immobilised EV71-VLP or the SP70 peptide epitope, shaken for one hour at room temperature and washed with PBS-T. Anti-human kappa chain HRP was added and the incubation and washing steps were repeated. TMB/K-Blue substrate was incubated with the reaction for 5-10 minutes at room temperature before the reaction was stopped with H₂SO₄ RED STOP. The optical density was read at 450/650 nm.

B1: hEV71 HMKA (antibody, V domains shown)
VH: QVQLVQSGAEVKKPGASVKVSCTASGFNIKDTYIHWVRQAPGQRLEWIGKIDPANGNTKYDPKFQDKATITADTSANTAYMELSSLRSEDTAVYYCANSNYWFDFDYWGQGTLVTVSS
VL: DIVMTQSPLSLPVTPGEPASISCRSSQSIVHSNGNTYLEWYLQKPGQSPQLLIYKVSNRFSGVPDRFSGSGSGTDFTLKISRVEAEDVGVYYCYQGSHVPYTFGGGTKVEIK
notes: Variable domains only; pHuG1 / pHuK vectors, Expi293 cells; behaves as an IgG monomer; also called huEV71 HMKA; EVM00
B1: in test [1], the Ka worked out at 2.62e+07 M⁻¹. In test [2], this molecule returned a ΔH of -16.5 kcal/mol and a ΔS of -21.4 cal/mol/deg. For the same molecule, the “EC50 (read off the curve)” value in test [3] was approximately 0.8 nM. Besides, in test [4], binding was put at a Kd of 38.2 nM. Moreover, the EC50 in test [5] stood at 1.15 nM.

The EC50 (read off the curve) is the concentration giving half of the maximal effect. A lower EC50 (read off the curve) goes with a more potent agent. By Kd is commonly meant the free concentration of one partner at which half of the binding sites on the other are occupied at equilibrium, for simple one-to-one binding. Low readings indicate a tighter complex, high ones a looser complex. As usually defined, the EC50 is the concentration at which the effect is half-maximal. Low readings indicate higher potency in that assay, high ones lower potency in that assay.
